Measurements reported in patent publication US20170355757A1 (Regeneron, published 2017).

T1: monkey C5-mmh (monkey, UniProt P01031 19-1676 (human entry), limits assumed)
T1 construct: Expressed with a C-terminal myc-myc-hexahistidine tag
T1 chain: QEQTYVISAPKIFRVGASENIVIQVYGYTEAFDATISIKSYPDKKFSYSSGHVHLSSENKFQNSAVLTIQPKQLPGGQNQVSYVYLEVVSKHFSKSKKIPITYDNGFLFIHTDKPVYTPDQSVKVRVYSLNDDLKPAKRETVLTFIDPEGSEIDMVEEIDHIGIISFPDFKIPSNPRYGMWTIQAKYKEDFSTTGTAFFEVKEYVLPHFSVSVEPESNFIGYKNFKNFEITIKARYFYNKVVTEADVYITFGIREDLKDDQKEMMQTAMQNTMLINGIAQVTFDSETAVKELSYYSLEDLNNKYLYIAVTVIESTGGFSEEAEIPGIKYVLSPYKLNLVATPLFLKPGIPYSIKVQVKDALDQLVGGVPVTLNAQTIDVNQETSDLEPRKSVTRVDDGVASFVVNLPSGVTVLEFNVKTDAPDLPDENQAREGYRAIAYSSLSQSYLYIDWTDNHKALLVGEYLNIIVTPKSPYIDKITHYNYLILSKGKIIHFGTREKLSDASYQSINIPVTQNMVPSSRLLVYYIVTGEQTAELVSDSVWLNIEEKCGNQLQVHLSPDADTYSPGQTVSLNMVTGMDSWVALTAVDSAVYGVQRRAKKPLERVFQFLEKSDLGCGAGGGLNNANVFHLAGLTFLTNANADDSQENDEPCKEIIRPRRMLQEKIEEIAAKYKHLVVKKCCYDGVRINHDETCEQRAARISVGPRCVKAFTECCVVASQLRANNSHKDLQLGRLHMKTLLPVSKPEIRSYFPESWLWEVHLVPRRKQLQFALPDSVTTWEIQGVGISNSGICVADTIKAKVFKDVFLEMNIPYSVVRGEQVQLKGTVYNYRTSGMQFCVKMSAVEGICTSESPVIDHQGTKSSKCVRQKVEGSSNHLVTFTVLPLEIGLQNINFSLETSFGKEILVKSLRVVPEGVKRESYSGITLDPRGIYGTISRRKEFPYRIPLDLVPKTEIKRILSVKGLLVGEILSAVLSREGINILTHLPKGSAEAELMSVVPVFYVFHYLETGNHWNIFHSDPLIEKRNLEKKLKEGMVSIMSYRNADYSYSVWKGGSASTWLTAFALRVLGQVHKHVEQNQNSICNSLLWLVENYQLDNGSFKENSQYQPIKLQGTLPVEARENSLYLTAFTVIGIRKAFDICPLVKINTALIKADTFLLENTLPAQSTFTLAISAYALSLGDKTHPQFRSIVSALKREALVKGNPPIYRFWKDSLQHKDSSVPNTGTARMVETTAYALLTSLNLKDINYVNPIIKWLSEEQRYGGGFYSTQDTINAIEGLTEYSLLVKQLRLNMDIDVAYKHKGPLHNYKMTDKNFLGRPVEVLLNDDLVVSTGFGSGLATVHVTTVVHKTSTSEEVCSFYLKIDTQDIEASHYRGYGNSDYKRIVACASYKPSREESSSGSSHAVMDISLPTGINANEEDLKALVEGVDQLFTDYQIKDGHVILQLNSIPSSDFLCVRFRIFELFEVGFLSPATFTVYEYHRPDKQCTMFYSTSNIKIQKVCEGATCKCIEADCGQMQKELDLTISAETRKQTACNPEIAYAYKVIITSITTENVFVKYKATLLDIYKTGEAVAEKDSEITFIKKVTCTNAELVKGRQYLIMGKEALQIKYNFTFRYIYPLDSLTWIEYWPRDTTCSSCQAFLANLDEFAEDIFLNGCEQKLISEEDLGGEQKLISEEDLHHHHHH


Tests used:
Human C5 [1] = target: T2, Human C5 (human, UniProt P01031 19-1676); experiment: SPR, mAb captured by anti-hFc, 25C
T2 construct: The natural protein has a beta and an alpha chain; also called complement factor 5; complement component 5
Protocol: (§1) Equilibrium dissociation constants (KD values) for C5 binding to purified anti-C5 antibodies were determined using a real-time surface plasmon resonance biosensor assay on a Biacore T200 instrument. The Biacore sensor surface was derivatized by amine coupling with a monoclonal mouse anti-human Fc antibody (GE Healthcare, # BR-1008-39) to capture anti-C5 antibodies expressed with human Fc constant regions. Biacore binding studies were conducted in HBST running buffer (0.01M HEPES pH 7.4, 0.15M NaCl, 3 mM EDTA, 0.05% v/v Surfactant P20).
(§2) Human C5 was obtained from a commercial source (EMD). Other C5 reagents were expressed with a C-terminal myc-myc-hexahistidine tag (subsequently referred to as C5-mmh). […] Association of all the C5 reagents to each of the captured monoclonal antibodies was monitored for 3 minutes and their dissociation in HBST running buffer was monitored for 8 minutes. All the binding kinetics experiments were performed at either 25° C. or 37° C. Kinetic association (kₐ) and dissociation (kd) rate constants were determined by fitting the real-time sensorgrams to a 1:1 binding model using Scrubber 2.0c curve fitting software. Binding dissociation equilibrium constants (KD) and dissociative half-lives (t %) were calculated from the kinetic rate constants as: KD (M)=kd/kₐ and t_{1/2} (min)=In2/(60×kd)

monkey C5-mmh = target: T1, monkey C5-mmh; experiment: SPR, mAb captured by anti-hFc, 25C
Protocol: as §1, §2

Human C5 [2] = target: T2, Human C5; experiment: SPR, mAb captured by anti-hFc, 37C
Protocol: as §1, §2

100 nM Human C5 Bound (RU) (Human C5 [1]) | Kd (Human C5 [1]) | koff (Human C5 [1]) | kon (Human C5 [1]) | t½ (Human C5 [1]) | 100 nM monkey C5-mmh Bound (RU) (monkey C5-mmh) | Kd (monkey C5-mmh) | koff (monkey C5-mmh) | kon (monkey C5-mmh) | t1/2 (monkey C5-mmh) | 100 nM Human C5 Bound (RU) (Human C5 [2]) | Kd (Human C5 [2]) | koff (Human C5 [2]) | kon (Human C5 [2]) | t½ (Human C5 [2]) | Binder
60 RU | 0.959 nM | 6.29e-05 s⁻¹ | 65600 M⁻¹ s⁻¹ | 184 min | 32 RU | 21.5 nM | 0.000992 s⁻¹ | 46200 M⁻¹ s⁻¹ | 12 min | 37 RU | 13.1 nM | 0.000578 s⁻¹ | 44200 M⁻¹ s⁻¹ | 20 min | H4H12177P2 (antibody, human IgG4, V domains shown) VH: EVQLVESGGGVVQRGESLRLSCSASDFIFKDYAMYWVRQIPGKGLEWISLISGDGDTTWYGDSVKGRFTISRDNNENSLFLQMNDLRTEDTAMYYCARDMGWNFFQLQYWGQGTLVTVSS VL: not shown
95 RU | 0.438 nM | 0.000361 s⁻¹ | 826000 M⁻¹ s⁻¹ | 32 min | 71 RU | 10.5 nM | 0.00316 s⁻¹ | 300000 M⁻¹ s⁻¹ | 4 min | 110 RU | 1.29 nM | 0.00123 s⁻¹ | 950000 M⁻¹ s⁻¹ | 9 min | H4H12166P2 (antibody, human IgG4, V domains shown, human IgG4 Fc with S108P hinge mutation) VH: QVQLQESGPGLVKPSETLSLTCTVSGDSVSSSYWTWIRQPPGKGLEWIGYIYYSGSSNYNPSLKSRATISVDTSKNQFSLKLSSVTAADTAVYYCAREGNVDTTMIFDYWGQGTLVTVSS VL: AIQMTQSPSSLSASVGDRVTITCRASQGIRNDLGWYQQKPGKAPKLLIYAASSLQSGVPSRFAGRGSGTDFTLTISSLQPEDFATYYCHQDFNYPWTFGQGTKVEIK
92 RU | 3.67 nM | 0.00101 s⁻¹ | 274000 M⁻¹ s⁻¹ | 11 min | 36 RU | 46.5 nM | 0.00633 s⁻¹ | 136000 M⁻¹ s⁻¹ | 2 min | 105 RU | 7.39 nM | 0.00258 s⁻¹ | 349000 M⁻¹ s⁻¹ | 4 min | H4H12166P7 (antibody, human IgG4, V domains shown, human IgG4 Fc with S108P hinge mutation) VH: QVQLQESGPGLVKPSETLSLTCTVSGDSVSSSYWTWIRQPPGKGLEWIGYIYYSGSSNYNPSLKSRATISVDTSKNQFSLKLSSVTAADTAVYYCAREHNVDTTMIFDYWGQGTLVTVSS VL: AIQMTQSPSSLSASVGDRVTITCRASQGIRNDLGWYQQKPGKAPKLLIYAASSLQSGVPSRFAGRGSGTDFTLTISSLQPEDFATYYCLQDFNYPWHFGQGTKVEIK
131 RU | 0.375 nM | 0.000184 s⁻¹ | 489000 M⁻¹ s⁻¹ | 63 min | 94 RU | 11.1 nM | 0.00266 s⁻¹ | 239000 M⁻¹ s⁻¹ | 4 min | 157 RU | 0.875 nM | 0.000474 s⁻¹ | 542000 M⁻¹ s⁻¹ | 24 min | H4H12166P6 (antibody, human IgG4, V domains shown, human IgG4 Fc with S108P hinge mutation) VH: QVQLQESGPGLVKPSETLSLTCTVSGDSVSSSYWTWIRQPPGKGLEWIGYIYYSGSSNYNPSLKSRATISVDTSKNQFSLKLSSVTAADTAVYYCAREGNVDHTMIFDYWGQGTLVTVSS VL: AIQMTQSPSSLSASVGDRVTITCRASQGIRNDLGWYQQKPGKAPKLLIYAASSLQSGVPSRFAGRGSGTDFTLTISSLQPEDFATYYCLQDFNYPWTFGQGTKVEIK
110 RU | 1.15 nM | 0.000328 s⁻¹ | 285000 M⁻¹ s⁻¹ | 35 min | 56 RU | 24 nM | 0.00346 s⁻¹ | 144000 M⁻¹ s⁻¹ | 3 min | 129 RU | 2.77 nM | 0.00122 s⁻¹ | 440000 M⁻¹ s⁻¹ | 9 min | H4H12166P5 (antibody, human IgG4, V domains shown, human IgG4 Fc with S108P hinge mutation) VH: QVQLQESGPGLVKPSETLSLTCTVSGDSVSSSYWTWIRQPPGKGLEWIGYIYYSGSSNYNPSLKSRATISVDTSKNQFSLKLSSVTAADTAVYYCAREGNVDTTMIHDYWGQGTLVTVSS VL: AIQMTQSPSSLSASVGDRVTITCRASQGIRNDLGWYQQKPGKAPKLLIYAASSLQSGVPSRFAGRGSGTDFTLTISSLQPEDFATYYCLQDFNYPWTFGQGTKVEIK
92 RU | 0.395 nM | 0.000176 s⁻¹ | 446000 M⁻¹ s⁻¹ | 66 min | 69 RU | 8.5 nM | 0.00178 s⁻¹ | 210000 M⁻¹ s⁻¹ | 6 min | 108 RU | 0.93 nM | 0.000469 s⁻¹ | 505000 M⁻¹ s⁻¹ | 25 min | H4H12166P4 (antibody, human IgG4, V domains shown, human IgG4 Fc with S108P hinge mutation) VH: QVQLQESGPGLVKPSETLSLTCTVSGDSVSSSYWTWIRQPPGKGLEWIGYIYYSGSSNYNPSLKSRATISVDTSKNQFSLKLSSVTAADTAVYYCAREGNVDTTMIFDYWGQGTLVTVSS VL: AIQMTQSPSSLSASVGDRVTITCRASQGIRNDLGWYQQKPGKAPKLLIYAASSLQSGVPSRFAGRGSGTDFTLTISSLQPEDFATYYCLQDFNYPWHFGQGTKVEIK
119 RU | 0.129 nM | 6.79e-05 s⁻¹ | 525000 M⁻¹ s⁻¹ | 170 min | 92 RU | 0.199 nM | 5.21e-05 s⁻¹ | 262000 M⁻¹ s⁻¹ | 222 min | 55 RU | 1.4 nM | 0.000415 s⁻¹ | 297000 M⁻¹ s⁻¹ | 28 min | H4H12170P (antibody, human IgG4, V domains shown) VH: QVQLVESGGGVVQPGRSLRLSCAASGFTFSGYGMHWVRQAPGKGLEWVALIWLDGSNDYYADSVKGRFTISRDNSKNTLYLQMNRLRAEDTAVYYCARDGPVAAIPDYWGQGTLVTVSS VL: DIQMTQSPSTLSASVGDRVTITCRASQSISRWLAWYQLKPGKAPKLLIYKASSLESGVPSRFSGSGSGTDFTLTISSLQPDDFATYYCQQYNTYSYTFGQGTKLEIK
50 RU | 0.163 nM | 2.7e-05 s⁻¹ | 166000 M⁻¹ s⁻¹ | 427 min | 23 RU | 10.1 nM | 0.000494 s⁻¹ | 48800 M⁻¹ s⁻¹ | 23 min | 30 RU | 5.81 nM | 0.00025 s⁻¹ | 43000 M⁻¹ s⁻¹ | 46 min | H4H12183P2 (antibody, human IgG4, V domains shown) VH: QVQLQESGPALVKPSQTLSLTCTVSGGSIIRGSTYWSWVRQFPGKGLEWIGYSYYSGTAYYNPSLESRATISVDTSKNQFSLNLKSVTAADTAVYYCTREIGVAGLFDIWGQGTLVTVSS VL: not shown
